This passage reports Stability and IC50 results from patent US20150010586A1.

Holding throughout (details): remark: other sources report otherwise
One assay deals with HLA-A*0201 (human). The experiment in a line: HLA-A*0201 peptide stabilization assay; unstable if >50% of complexes lost within 2 h.
In the next assay the target is HLA-A*0301 (human). The experiment in a line: cellular competition assay vs FL-labelled reference peptide on B cells; affinity category (high/good IC50<5 uM, intermediate 5-15 uM, low >15-50 uM).
Another assay has as its target HLA-A*0101 (human). Described as above.
Another assay deals with HLA-A*1101 (human). The assay is described as above.

In the assay with HLA-A*0201 (human), GLAPPQHLIRV [p53 187-197 …] registered a Stability of 6 h.

As for RAHSSHLKSK [p53 363-372 …], in the assay with HLA-A*0301 (human), the IC50 – broadly, the midpoint of a concentration-inhibition curve – lay within 5 to 15 µM.

In turn, RVEGNLRVEY [p53 196-205 …] had a half-inhibitory concentration (IC50) in the assay with HLA-A*0101 (human) of 5 to 15 µM.

Turning to RTEEENLRK [p53 283-291 …], the half-maximal inhibitory concentration (IC50) in the assay with HLA-A*1101 (human) is 5 to 15 µM.

In turn, RAHSSHLK [p53 363-370 RAHSSHLK] came in with an IC50 with HLA-A*1101 (human) of 5 to 15 µM.

As to VTCTYSPALNK [p53 122-132 …], the half-inhibitory concentration (IC50) with HLA-A*0301 (human) lay within 5 to 15 µM.

For RMPEAAPPV [p53 65-73 …], the Stability with HLA-A*0201 (human) amounted to 6 h.

For the molecule VVRRCPHHER [p53 172-181 …], the concentration for half-maximal inhibition (IC50) with HLA-A*0301 (human) fell in the range of 5 to 15 µM.

GFLHSGTAK [p53 112-120 …]: the IC50 with HLA-A*0301 (human) and in the assay with HLA-A*1101 (human) was 5 to 15 µM in each case.

FLHSGTAK [p53 113-120 FLHSGTAK] gave a half-inhibitory concentration (IC50) in the assay with HLA-A*0301 (human) of 5 to 15 µM.

KGQSTSRHK [p53 373-381 …] had an IC50 with HLA-A*0301 (human) of 5 to 15 µM.

For the molecule GTRVRAMAIY [p53 154-163 …], the 50% inhibitory concentration (IC50) with HLA-A*0301 (human) lay within 5 to 15 µM.

In the case of FLHSGTAKSV [p53 113-122 …], the Stability with HLA-A*0201 (human) was 6 h.
